Experiments:
[1] = biological target: IN CTD mutant (RRKAK to RAAAK) (HIV-1) (UniProt P12497); experiment: BLI; IN CTD construct (5 uM, acetate buffer pH 5) amine-coupled (EDC/NHS) to carboxyl biosensors, Imp7 in solution at 1-40 000 nM; steady-state analysis; 25 °C; GatorPrime
[2] = biological target: C-terminal domain of HIV-1 integrase (HIV-1) (UniProt P12497); experiment: as above

Xenopus laevis importin 7 (natural protein)
Kd [1]: 299 nM
Kd [2]: 17.9 nM
stoichiometry N [2]: 1

Reference: paper PMC13399220
